# In patent US10766960 (dated 2020):
# T1: FcgRIIa H (human, UniProt P12318)
# T1 chain: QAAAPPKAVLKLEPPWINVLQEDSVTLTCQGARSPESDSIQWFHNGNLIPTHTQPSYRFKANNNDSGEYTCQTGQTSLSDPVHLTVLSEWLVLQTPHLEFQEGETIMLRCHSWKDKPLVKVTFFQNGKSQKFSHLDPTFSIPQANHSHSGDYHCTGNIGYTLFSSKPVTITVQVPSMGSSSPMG
# T2: FcgRIIa R (human, UniProt P12318)
# T2 chain: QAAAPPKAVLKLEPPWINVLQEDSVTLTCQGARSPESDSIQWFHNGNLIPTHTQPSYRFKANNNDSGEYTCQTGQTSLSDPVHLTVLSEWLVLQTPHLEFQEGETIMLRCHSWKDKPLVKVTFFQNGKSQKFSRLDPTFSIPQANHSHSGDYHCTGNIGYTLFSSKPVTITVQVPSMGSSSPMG
# T3: FcgRIa (human, UniProt P12314)
# T3 chain: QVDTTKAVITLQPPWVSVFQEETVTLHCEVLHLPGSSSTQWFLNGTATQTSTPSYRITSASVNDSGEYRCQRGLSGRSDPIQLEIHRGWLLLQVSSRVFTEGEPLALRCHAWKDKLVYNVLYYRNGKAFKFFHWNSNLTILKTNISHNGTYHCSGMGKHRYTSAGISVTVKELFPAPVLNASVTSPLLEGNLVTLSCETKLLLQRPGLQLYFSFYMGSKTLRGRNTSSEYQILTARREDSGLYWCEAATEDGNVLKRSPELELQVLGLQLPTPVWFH
# T4: FcgRIIb (human, UniProt P31994)
# T4 chain: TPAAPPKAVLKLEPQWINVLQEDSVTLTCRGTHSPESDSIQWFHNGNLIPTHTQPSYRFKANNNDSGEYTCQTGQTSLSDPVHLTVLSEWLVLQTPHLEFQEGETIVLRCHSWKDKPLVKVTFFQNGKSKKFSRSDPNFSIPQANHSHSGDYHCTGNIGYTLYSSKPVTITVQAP
# How the values were obtained:
# Assay in all cases: SPR
# FcgRIIa H = biological target: T1, FcgRIIa H
# FcgRIIIa F = FcgRIIIa F (human, UniProt P08637)
# FcgRIIa R = biological target: T2, FcgRIIa R
# FcgRIa = biological target: T3, FcgRIa
# FcgRIIb = biological target: T4, FcgRIIb
# FcgRIIIa V = FcgRIIIa V (human, UniProt P08637)
# FcgRIIIa V, sequence (P08637 17-208 F176V): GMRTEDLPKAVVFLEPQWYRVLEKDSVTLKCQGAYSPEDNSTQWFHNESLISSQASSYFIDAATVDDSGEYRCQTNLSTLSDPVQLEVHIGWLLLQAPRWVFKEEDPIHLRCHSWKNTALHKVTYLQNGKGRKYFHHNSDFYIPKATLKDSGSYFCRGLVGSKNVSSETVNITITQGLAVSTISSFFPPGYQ
# FcgRIIIa F, sequence (P08637 17-208): as the sequence (P08637 17-208 F176V) above, with V160F counted along it
Kd (FcgRIIa H),Kd (FcgRIIIa F),Kd (FcgRIIa R),Kd (FcgRIa),Kd (FcgRIIb),Kd (FcgRIIIa V),Binder
94 nM,4.2 nM,62 nM,0.13 nM,280 nM,0.57 nM,H240-Kn223/H240-Hl068/L73-k0 (antibody) chain 1: QDQLVQSGAEVKKPGASVKVSCKASGFNIKDTYIQWVRQAPGQGLEWMGRIDPLRKQTKYREKFEGRVTITADTSTNTAYMELSSLRSEDTAVYYCVRSGREFDYWGQGTLVTVSSASTKGPSVFPLAPSSKSTSGGTAALGCLVKDYFPEPVTVSWNSGALTSGVHTFPAVLQSSGLYSLSSVVTVPSSSLGTQTYICNVNHKPSNTKVDKKVEPKSCDKTHTCPPCPAPEGYWGPMVFLFPPKPKDTLMISRTPEVTCVVVDVSDEDPEVKFNWYVDGVEVHNAKTKPREEQYNATYRVVSVLTVLHQDWLNGKEYKCKVSNKDLPAPIEKTISKAKGQPREPQVCTLPPSRDELTKNQVSLWCLVKGFYPSDIAVEWESNGQPENNYKTTPPVLDSDGSFFLYSKLTVDKSRWQQGNVFSCSVMHEALHNHYTQKSLSLSP chain 2: QDQLVQSGAEVKKPGASVKVSCKASGFNIKDTYIQWVRQAPGQGLEWMGRIDPLRKQTKYREKFEGRVTITADTSTNTAYMELSSLRSEDTAVYYCVRSGREFDYWGQGTLVTVSSASTKGPSVFPLAPSSKSTSGGTAALGCLVKDYFPEPVTVSWNSGALTSGVHTFPAVLQSSGLYSLSSVVTVPSSSLGTQTYICNVNHKPSNTKVDKKVEPKSCDKTHTCPPCPAPELLGGPSVFLFPPKPKDTLMISRTPEVTCVVVDVSHEEPEVKFNWYVDGVEVHNAKTKPREEQYNSTYRVVSVLTVLHQDWLNGKEYKCKVSNDALPKPIEETISKAKGQPREPQVYTLPPSRCELTKNQVSLSCAVKGFYPSDIAVEWESNGQPENNYKTTPPVLDSDGSFFLVSKLTVDKSRWQQGNVFSCSVMHEALHNHYTQKSLSLSP chain 3: DIQMTQSPSSLSASVGDRVTITCRASQDIHKYIAWYQQKPGQAPRLLIQYTSTLQPGVPSRFSGSGSGTDYTFTISSLQPEDIATYYCLQYEQLRTFGGGTKVEIKRTVAAPSVFIFPPSDEQLKSGTASVVCLLNNFYPREAKVQWKVDNALQSGNSQESVTEQDSKDSTYSLSSTLTLSKADYEKHKVYACEVTHQGLSSPVTKSFNRGEC
140 nM,1.8 nM,720 nM,0.058 nM,5400 nM,0.36 nM,H240-Kn201/H240-Hl076/L73-k0 (antibody) chain 1: QDQLVQSGAEVKKPGASVKVSCKASGFNIKDTYIQWVRQAPGQGLEWMGRIDPLRKQTKYREKFEGRVTITADTSTNTAYMELSSLRSEDTAVYYCVRSGREFDYWGQGTLVTVSSASTKGPSVFPLAPSSKSTSGGTAALGCLVKDYFPEPVTVSWNSGALTSGVHTFPAVLQSSGLYSLSSVVTVPSSSLGTQTYICNVNHKPSNTKVDKKVEPKSCDKTHTCPPCPAPEFQWGPMVFLFPPKPKDTLMISRTPEVTCVVVDVSDEEPEVKFNWYVDGVEVHNAKTKPREEQYNATYRVVSVLTVLHQDWLNGKEYKCKVSNKALPAPIEKTISKAKGQPREPQVCTLPPSRDELTKNQVSLWCLVKGFYPSDIAVEWESNGQPENNYKTTPPVLDSDGSFFLYSKLTVDKSRWQQGNVFSCSVMHEALHNHYTQKSLSLSP chain 2: QDQLVQSGAEVKKPGASVKVSCKASGFNIKDTYIQWVRQAPGQGLEWMGRIDPLRKQTKYREKFEGRVTITADTSTNTAYMELSSLRSEDTAVYYCVRSGREFDYWGQGTLVTVSSASTKGPSVFPLAPSSKSTSGGTAALGCLVKDYFPEPVTVSWNSGALTSGVHTFPAVLQSSGLYSLSSVVTVPSSSLGTQTYICNVNHKPSNTKVDKKVEPKSCDKTHTCPPCPAPELLGGPSVFLFPPKPKDTLMISRTPEVTCVVVDVSHEEPEVKFNWYVDGVEVHNAKTKPREEQYNSTYRVVSVLTVLHQDWLNGKEYKCKVSNDALPMPIEETISKAKGQPREPQVYTLPPSRCELTKNQVSLSCAVKGFYPSDIAVEWESNGQPENNYKTTPPVLDSDGSFFLVSKLTVDKSRWQQGNVFSCSVMHEALHNHYTQKSLSLSP chain 3: DIQMTQSPSSLSASVGDRVTITCRASQDIHKYIAWYQQKPGQAPRLLIQYTSTLQPGVPSRFSGSGSGTDYTFTISSLQPEDIATYYCLQYEQLRTFGGGTKVEIKRTVAAPSVFIFPPSDEQLKSGTASVVCLLNNFYPREAKVQWKVDNALQSGNSQESVTEQDSKDSTYSLSSTLTLSKADYEKHKVYACEVTHQGLSSPVTKSFNRGEC
20 nM,2.7 nM,14 nM,0.15 nM,90 nM,0.49 nM,H240-Kn219/H240-Hl068/L73-k0 (antibody) chain 1: QDQLVQSGAEVKKPGASVKVSCKASGFNIKDTYIQWVRQAPGQGLEWMGRIDPLRKQTKYREKFEGRVTITADTSTNTAYMELSSLRSEDTAVYYCVRSGREFDYWGQGTLVTVSSASTKGPSVFPLAPSSKSTSGGTAALGCLVKDYFPEPVTVSWNSGALTSGVHTFPAVLQSSGLYSLSSVVTVPSSSLGTQTYICNVNHKPSNTKVDKKVEPKSCDKTHTCPPCPAPEIYWGPMVFLFPPKPKDTLMISRTPEVTCVVVDVSDEDPEVKFNWYVDGVEVHNAKTKPREEQYNATYRVVSVLTVLHQDWLNGKEYKCKVSNKDLPAPIEKTISKAKGQPREPQVCTLPPSRDELTKNQVSLWCLVKGFYPSDIAVEWESNGQPENNYKTTPPVLDSDGSFFLYSKLTVDKSRWQQGNVFSCSVMHEALHNHYTQKSLSLSP chain 2: QDQLVQSGAEVKKPGASVKVSCKASGFNIKDTYIQWVRQAPGQGLEWMGRIDPLRKQTKYREKFEGRVTITADTSTNTAYMELSSLRSEDTAVYYCVRSGREFDYWGQGTLVTVSSASTKGPSVFPLAPSSKSTSGGTAALGCLVKDYFPEPVTVSWNSGALTSGVHTFPAVLQSSGLYSLSSVVTVPSSSLGTQTYICNVNHKPSNTKVDKKVEPKSCDKTHTCPPCPAPELLGGPSVFLFPPKPKDTLMISRTPEVTCVVVDVSHEEPEVKFNWYVDGVEVHNAKTKPREEQYNSTYRVVSVLTVLHQDWLNGKEYKCKVSNDALPKPIEETISKAKGQPREPQVYTLPPSRCELTKNQVSLSCAVKGFYPSDIAVEWESNGQPENNYKTTPPVLDSDGSFFLVSKLTVDKSRWQQGNVFSCSVMHEALHNHYTQKSLSLSP chain 3: DIQMTQSPSSLSASVGDRVTITCRASQDIHKYIAWYQQKPGQAPRLLIQYTSTLQPGVPSRFSGSGSGTDYTFTISSLQPEDIATYYCLQYEQLRTFGGGTKVEIKRTVAAPSVFIFPPSDEQLKSGTASVVCLLNNFYPREAKVQWKVDNALQSGNSQESVTEQDSKDSTYSLSSTLTLSKADYEKHKVYACEVTHQGLSSPVTKSFNRGEC
